Experimental findings from publication PMC11892650 (Proceedings of the National Academy of Sciences of the …, 2025) are described below.

“And” between values parts separate entries of the source, which are not always exact repeats. Identical values can stand only once.

Assay [1] deals with RPLL mutant of JIP1_(116–266) (R160E, P161A, L164A, L166A) (UniProt Q9UQF2). Description: NMR 15N CPMG relaxation dispersion.
Assay [2] addresses c-Jun N-terminal kinase 1 (JNK1), inactive, unphosphorylated form (UniProt P45983). The assay can be described thus: native MS.
Assay [3] addresses T1, c-Jun N-terminal kinase 1 (JNK1), inactive, unphosphorylated form (UniProt P45983 5-364). Description: ITC.
In assay [4] the target is T1, c-Jun N-terminal kinase 1 (JNK1), …. The assay can be described thus: native MS.

T1 sequence (P45983 5-364): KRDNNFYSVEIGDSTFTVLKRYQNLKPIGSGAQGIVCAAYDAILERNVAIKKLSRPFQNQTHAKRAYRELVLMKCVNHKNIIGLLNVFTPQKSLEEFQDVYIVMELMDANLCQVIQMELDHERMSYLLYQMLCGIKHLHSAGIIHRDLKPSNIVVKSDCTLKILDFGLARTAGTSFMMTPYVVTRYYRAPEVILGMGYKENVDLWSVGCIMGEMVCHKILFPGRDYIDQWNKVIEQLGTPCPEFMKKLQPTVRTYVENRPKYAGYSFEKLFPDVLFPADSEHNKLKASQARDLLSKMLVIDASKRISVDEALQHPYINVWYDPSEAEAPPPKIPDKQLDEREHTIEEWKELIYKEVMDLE
Sequence of c-Jun N-terminal kinase 1 (JNK1), inactive, unphosphorylated form (UniProt P45983) (P45983 5-364): as above

Turning to “c-Jun N-terminal kinase 1 (JNK1), inactive, unphosphorylated form (from UniProt P45983 5-364) (enzyme)”, in assay [1], the dissociation constant (Kd) was found to be 2200 µM, the bound-state population pB came out at 1.6%, the exchange rate constant kex stood at 1100 s⁻¹ and the dissociation rate constant (koff) worked out at 1080 s⁻¹. Moreover, the kon in assay [1] was 480000 M⁻¹ s⁻¹.

For “JIP1_(1–145) (from UniProt Q9UQF2 1-145) (domain or fragment)”, the stoichiometry N in assay [2] was 1.

B1: peptide corresponding to the D-motif of JIP1 (157RPKRPTTLNLF167) (peptide)
peptide: RPKRPTTLNLF
B1 gave a Kd in assay [3] of 0.217 µM.

B2: IL mutant of JIP1_(116–266) (I211A, L213A) (domain or fragment, UniProt Q9UQF2 116-266, looked up)
chain: ERAARRPGAGPPKAESGQEPASRGQGQSQGQSQGPGSGDTYRPKRPTTLNLFPQVPRSQDTLNNNSLGKKHSWQDRVSRSSSPLKTGEQTPPHEHACASDELPPQSGPAPTTDRGTSTDSPCRRSTATQMAPPGGPPAAPPGGRGHSHRDR
Take B2: in assay [3], binding was put at a Kd of 0.082 µM and the dH was -10.7 kcal/mol. For the same molecule, the “stoichiometry N” value in assay [4] is 1.

B3: JIP1_(116–266), the shortest construct comprising the D-motif (domain or fragment, UniProt Q9UQF2 116-266, looked up)
chain: ERAARRPGAGPPKAESGQEPASRGQGQSQGQSQGPGSGDTYRPKRPTTLNLFPQVPRSQDTLNNNSLGKKHSWQDRVSRSSSPLKTGEQTPPHEHICLSDELPPQSGPAPTTDRGTSTDSPCRRSTATQMAPPGGPPAAPPGGRGHSHRDR
Regarding B3, in assay [3], binding was characterised by a dissociation constant (Kd) of 0.081 µM, the dH is -11.6 kcal/mol and the “ΔΔH (binding enthalpy against the D-motif peptide)” value is 4 kcal/mol. Moreover, the “stoichiometry N” value in assay [4] was found to be 1.

B4: JIP1_(1–266) (domain or fragment, UniProt Q9UQF2 1-266, looked up)
chain: MAERESGGLGGGAASPPAASPFLGLHIASPPNFRLTHDISLEEFEDEDLSEITDECGISLQCKDTLSLRPPRAGLLSAGGGGAGSRLQAEMLQMDLIDATGDTPGAEDDEEDDDEERAARRPGAGPPKAESGQEPASRGQGQSQGQSQGPGSGDTYRPKRPTTLNLFPQVPRSQDTLNNNSLGKKHSWQDRVSRSSSPLKTGEQTPPHEHICLSDELPPQSGPAPTTDRGTSTDSPCRRSTATQMAPPGGPPAAPPGGRGHSHRDR
Turning to B4, the “stoichiometry N” value in assay [4] was 1 and 2 JNK1 per JIP1.
